For data set [1], the target named is T1, MRIP^724-878 (myosin phosphatase-RhoA interacting protein, residues 724–878; CC2-CC4) (UniProt Q6WCQ1 724-878).
T1 construct: Tight homodimer in solution by AUC; the forward primer puts an NdeI ATG before the codons GAGCGAGGGTTTGCAGCAATG; source: E. coli BL21 (DE3), purified (chitin beads, C8 reversed-phase HPLC)
T1 sequence (looked up): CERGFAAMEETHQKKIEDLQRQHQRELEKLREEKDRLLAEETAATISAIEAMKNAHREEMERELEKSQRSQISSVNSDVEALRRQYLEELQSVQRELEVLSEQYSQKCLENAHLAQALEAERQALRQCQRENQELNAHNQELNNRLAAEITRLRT
As to the kind of experiment: SPR; Biacore 3000, 25°C; LR immobilised (244.8 RU) by amine coupling on CM5, analyte MRIP^724-878 (85.6–0.7 μM); reference surface a nebulin-derived peptide; 50 mM potassium phosphate pH 7.4, 100 mM KCl; steady-state affinity fit. Particulars: both partners purified.

The target in data set [2] is T1, MRIP^724-878 (myosin phosphatase-RhoA …). Kind of data set: SPR; Biacore 3000, 25°C; MRIP^724-878 immobilised (1800 RU) by amine coupling on CM5, analytes CCLR (167–1 μM), CC (318–10 μM), LR (569–5 μM); reference surface G-actin; 50 mM potassium phosphate pH 7.4, 100 mM KCl; steady-state affinity fit. Conditions: both partners purified.
A further data set deals with MRIP. Further details: method as in PMID 16243315. Particulars: double point mutations in CC5; ref [12]; cited from earlier work.
The next data set concerns the target T2, MRIP^724-878 (Homo sapiens, UniProt Q6WCQ1).
T2 construct: MRIP^724-878 (residues 724–878; CC2-CC4); made in house; host or cells: Escherichia coli BL21 (DE3)
T2 sequence (Q6WCQ1 725-879): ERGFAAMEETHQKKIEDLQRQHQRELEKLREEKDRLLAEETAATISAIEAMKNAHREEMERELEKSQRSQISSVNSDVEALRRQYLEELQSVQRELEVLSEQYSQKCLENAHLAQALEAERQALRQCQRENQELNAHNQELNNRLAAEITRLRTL
As to the kind of experiment: SPR, MYPT1 peptides as analytes over immobilized MRIP^724-878. The class given is binding. Particulars: 25°C, pH 7.4, CCLR 167–1 μM, CC 318–10 μM, LR 569–5 μM. The procedure:
To corroborate the results from AUC studies, SPR was employed. […] Equilibrium K d values were obtained by nonlinear curve fitting of reference-corrected curves using the steady-state affinity fitting model in BIAevaluation version 4–1.
Analytes CCLR, CC, LR: Interactions between analytes, CCLR (167–1 μM), CC (318–10 μM), and LR (569–5 μM) with immobilized ligand, MRIP^724-878 (1800 RU) after correction for nonspecific binding using G-actin (2230 RU). Shown is a representative out of 9 experiments for CCLR and 8 for LR in each, duplicates or triplicates. Insets show fittings of steady-state affinity. Ligand LR: Interaction of analyte, MRIP^724-878 (85.6–0.7 μM) with immobilized ligand, LR (244.8 RU) after correction for nonspecific binding using a nebulin-derived peptide (600 RU). Shown is a representative out of 6 experiments.
Binding analyses of SPR were conducted on a Biacore 3000 (GE Healthcare) at 25°C. Sensor chips and reagents for immobilization (1-ethyl-3-(3-dimethylaminopropyl) carbodiimide, N-hydroxyl-succinimide, and ethanolamine) were purchased from GE Healthcare. Peptides were immobilized onto a CM5 sensor chip at 232–5841 resonance units (RU) using amine coupling. Binding studies were done using two-fold serial dilutions of the peptides in 50 mM potassium phosphate buffer (pH 7.4) containing 100 mM KCl. […]

The conditions of data set [3]: ref [14]; cited from earlier work. The procedure: The concentration ranges of the MRIP peptides in the mixtures overlap with those of the MRIP peptides by themselves (Fig 2). Thus, the greater s* values of the MRIP/MYPT1 mixtures than those of the individual MRIP peptides indicate that MRIP^545-878 monomer, MRIP^724-878 dimer, and the mixture of monomer and dimer of MRIP^724-837 bind to CCLR. […] To obtain the binding stoichiometry, AUC was performed using MRIP^724-878/CCLR mixtures at different ratios of the two peptides. MRIP^724-878 was chosen because the AUC stu ... || To obtain the binding stoichiometry, a series of sedimentation equilibrium experiments was performed. MRIP^724-878 was chosen due to its being a single species. Owing to the absence of aromatic residues, LR was employed. AUC was conducted using MRIP^724-878 alone, LR alone, the 1:1 mixture of MRIP^724-878/LR, and the 1:3 mixture of MRIP^724-878/LR. Sedimentation data were collected both at 280 nm to detect only MRIP^724-878 and at 220 nm to detect both.

Numbering of substitutions follows the chain as printed. In names and notes the source's numbering stands.

B1: LR, leucine repeat region of MYPT1 (residues 991–1030) (peptide, UniProt O14974 991-1030, looked up)
chain: ERRISEMEEELKMLPDLKADNQRLKDENGALIRVISKLSK
notes: no result of its own is told for it; also called WT-LR; source: E. coli BL21 (DE3), purified (chitin beads, C8 reversed-phase HPLC)
For the molecule B1, the Kd in data set [1] came to 40 µM; in data set [2], 195 µM.

B2: L905P/I912P: MRIP mutation employed by Mulder et al; double point mutation in CC5 (protein, UniProt Q6WCQ1 2-1025, looked up, variant L905P I912P)
Myosin phosphatase …: SAAKENPCRKFQANIFNKSKCQNCFKPRESHLLNDEDLTQAKPIYGGWLLLAPDGTDFDNPVHRSRKWQRRFFILYEHGLLRYALDEMPTTLPQGTINMNQCTDVVDGEGRTGQKFSLCILTPEKEHFIRAETKEIVSGWLEMLMVYPRTNKQNQKKKRKVEPPTPQEPGPAKVAVTSSSSSSSSSSSIPSAEKVPTTKSTLWQEEMRTKDQPDGSSLSPAQSPSQSQPPAASSLREPGLESKEEESAMSSDRMDCGRKVRVESGYFSLEKTKQDLKAEEQQLPPPLSPPSPSTPNHRRSQVIEKFEALDIEKAEHMETNAVGPSPSSDTRQGRSEKRAFPRKRDFTNEAPPAPLPDASASPLSPHRRAKSLDRRSTEPSVTPDLLNFKKGWLTKQYEDGQWKKHWFVLADQSLRYYRDSVAEEAADLDGEIDLSACYDVTEYPVQRNYGFQIHTKEGEFTLSAMTSGIRRNWIQTIMKHVHPTTAPDVTSSLPEEKNKSSCSFETCPRPTEKQEAELGEPDPEQKRSRARERRREGRSKTFDWAEFRPIQQALAQERVGGVGPADTHEPLRPEAEPGELERERARRREERRKRFGMLDATDGPGTEDAALRMEVDRSPGLPMSDLKTHNVHVEIEQRWHQVETTPLREEKQVPIAPVHLSSEDGGDRLSTHELTSLLEKELEQSQKEASDLLEQNRLLQDQLRVALGREQSAREGYVLQATCERGFAAMEETHQKKIEDLQRQHQRELEKLREEKDRLLAEETAATISAIEAMKNAHREEMERELEKSQRSQISSVNSDVEALRRQYLEELQSVQRELEVLSEQYSQKCLENAHLAQALEAERQALRQCQRENQELNAHNQELNNRLAAEITRLRTLLTGDGGGEATGSPLAQGKDAYELEVLPRVKESEPQYLKQEISSLKDELQTALRDKKYASDKYKDIYTELSIAKAKADCDISRLKEQLKAATEALGEKSPDSATVSGYDIMKSKSNPDFLKKDRSCVTRQLRNIRSKSVIEQVSWDT
For B2, in the data set on MRIP, the oligomerization entry is “little oligomerization”.

B3: I919P/L926P: MRIP mutation employed by Mulder et al; double point mutation in CC5 (protein, UniProt Q6WCQ1 2-1025, looked up, variant I919P L926P)
Myosin phosphatase …: B2 Myosin phosphatase … with P905L, P912I, I919P, L926P
B3: the oligomerization result in the data set with MRIP was “little oligomerization”.

B4: CCLR, MYPT1 peptide (residues 924–1030) containing a putative coiled coil domain (CC) and the leucine repeat region (LR) (domain or fragment, UniProt O14974 924-1030, looked up)
chain: LEKDDSTDFKKLYEQILAENEKLKAQLHDTNMELTDLKLQLEKATQRQERFADRSLLEMEKRERRALERRISEMEEELKMLPDLKADNQRLKDENGALIRVISKLSK
notes: myosin phosphatase target subunit (MYPT1); also called C-terminal region of MYPT1; source: E. coli BL21 (DE3), purified (chitin beads, C8 reversed-phase HPLC)
For B4, in the data set with MRIP^724-878, the “complex formation with immobilized MRIP^724-878” value is listed as “formed complexes”. The self-association entry in data set [3] is listed as “reversible self-association”. This molecule showed a Kd in data set [2] of 14 µM.

(Values after article PMC4596477, “Interaction of Myosin Phosphatase Target Subunit (MYPT1) with Myosin Phosphatase-RhoA Interacting Protein (MRIP): A Role of Glutamic Acids in the Interaction” (PLoS ONE, 2015).)
